Measured values: publication PMC5906591

Molecular target: HigA2Ab-His antitoxin (C-terminal His-tag fusion, from pET-HigBA-His) (Acinetobacter baumannii)
Test: SEC

HigB2Ab toxin, untagged (co-expressed from pET-HigBA-His or pET-HigB-His6-TEV-HigA)
stoichiometry N (toxin:antitoxin): 1
